Test results reported in patent publication US20230357342A1.
pKd: −log10 of the molar value. Each block holds one substance with its values, some of them ahead of it.

How the values were obtained:
[1] = molecular target: modified IL-18 polypeptide SEQ ID NO: 207 (V11I, C38A, M51G, K53A, C76A, C127A) (human) (UniProt Q14116); test: cell-based or functional assay
[2] = molecular target: PEGylated modified IL-18 polypeptide SEQ ID NO: 5 + PEG (E6K, V11I, C38A, K53A, T63A, C68A, C76A, C127A, M86C-30kPEG) (human) (UniProt Q14116); test: cell-based or functional assay
[3] = molecular target: modified IL-18 polypeptide SEQ ID NO: 227 (V11I, C38A, S55T, C76A, C127A) (human) (UniProt Q14116); test: cell-based or functional assay
[4] = molecular target: modified IL-18 polypeptide SEQ ID NO: 63 (E6K, C38A, K53A, C76A, C127A) (human) (UniProt Q14116); test: cell-based or functional assay
modified IL-18 polypeptide SEQ ID NO: 63 (E6K, C38A, K53A, C76A, C127A) (human), sequence (Q14116 other isoform, or with tags, fused parts or gaps C38A K53A C76A C127A C38A K53A C76A C127A): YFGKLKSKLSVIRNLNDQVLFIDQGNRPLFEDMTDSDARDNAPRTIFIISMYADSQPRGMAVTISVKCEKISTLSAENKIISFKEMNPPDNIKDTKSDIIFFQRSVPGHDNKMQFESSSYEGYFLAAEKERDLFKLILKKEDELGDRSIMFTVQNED

[5] = molecular target: modified IL-18 polypeptide SEQ ID NO: 11 (E6K, V11I, C38A, K53A, C76A, C127A) (human) (UniProt Q14116); test: cell-based or functional assay
modified IL-18 polypeptide SEQ ID NO: 11 (E6K, V11I, C38A, K53A, C76A, C127A) (human), sequence (Q14116 other isoform, or with tags, fused parts or gaps V11I C38A K53A C76A C127A V11I C38A K53A C76A C127A): as the sequence (Q14116 other isoform, or with tags, fused parts or gaps C38A K53A C76A C127A C38A K53A C76A C127A) above, with V11I counted along it

[6] = molecular target: modified IL-18 polypeptide SEQ ID NO: 208 (V11I, C38A, K53A, D54A, C76A, C127A) (human) (UniProt Q14116); test: cell-based or functional assay
modified IL-18 polypeptide SEQ ID NO: 208 (V11I, C38A, K53A, D54A, C76A, C127A) (human), sequence (Q14116 37-193 V47I/C74A/K89A/D90A/C112A/C163A): as the sequence (Q14116 other isoform, or with tags, fused parts or gaps C38A K53A C76A C127A C38A K53A C76A C127A) above, with K6E, V11I, D54A counted along it

[7] = molecular target: modified IL-18 polypeptide SEQ ID NO: 211 (V11I, T34A, C38A, K53A, C76A, C127A) (human) (UniProt Q14116); test: cell-based or functional assay
[8] = molecular target: modified IL-18 polypeptide SEQ ID NO: 57 (E6K, C38S, K53A) (human) (UniProt Q14116); test: cell-based or functional assay
[9] = molecular target: modified IL-18 polypeptide SEQ ID NO: 223 (K8E, V11I, C38A, C76A, Q103R, C127A) (human) (UniProt Q14116); test: cell-based or functional assay
[10] = molecular target: modified IL-18 polypeptide SEQ ID NO: 220 (V11I, C38A, K53A, C76A, H109A, C127A) (human) (UniProt Q14116); test: cell-based or functional assay
modified IL-18 polypeptide SEQ ID NO: 220 (V11I, C38A, K53A, C76A, H109A, C127A) (human), sequence (Q14116 37-193 V47I/C74A/K89A/C112A/H145A/C163A): as the sequence (Q14116 other isoform, or with tags, fused parts or gaps C38A K53A C76A C127A C38A K53A C76A C127A) above, with K6E, V11I, H109A counted along it

[11] = molecular target: modified IL-18 polypeptide SEQ ID NO: 210 (V11I, E31A, C38A, K53A, C76A, C127A) (human) (UniProt Q14116); test: cell-based or functional assay
modified IL-18 polypeptide SEQ ID NO: 210 (V11I, E31A, C38A, K53A, C76A, C127A) (human), sequence (Q14116 37-193 V47I/E67A/C74A/K89A/C112A/C163A): as the sequence (Q14116 other isoform, or with tags, fused parts or gaps C38A K53A C76A C127A C38A K53A C76A C127A) above, with K6E, V11I, E31A counted along it

[12] = molecular target: modified IL-18 polypeptide SEQ ID NO: 209 (F2A, V11I, C38A, K53A, C76A, C127A) (human) (UniProt Q14116); test: cell-based or functional assay
modified IL-18 polypeptide SEQ ID NO: 209 (F2A, V11I, C38A, K53A, C76A, C127A) (human), sequence (Q14116 other isoform, or with tags, fused parts or gaps V11I C38A K53A C76A C127A V11I C38A K53A C76A C127A): as the sequence (Q14116 other isoform, or with tags, fused parts or gaps C38A K53A C76A C127A C38A K53A C76A C127A) above, with F2A, K6E, V11I counted along it

[13] = molecular target: modified IL-18 polypeptide SEQ ID NO: 8 (E6K, V11I, C38A, K53A, T63A, C68A, C76A, T95C, C127A) (human) (UniProt Q14116); test: cell-based or functional assay
modified IL-18 polypeptide SEQ ID NO: 8 (E6K, V11I, C38A, K53A, T63A, C68A, C76A, T95C, C127A) (human), sequence (Q14116 other isoform, or with tags, fused parts or gaps with the stated changes): as the sequence (Q14116 other isoform, or with tags, fused parts or gaps C38A K53A C76A C127A C38A K53A C76A C127A) above, with V11I, T63A, C68A, T95C counted along it

[14] = molecular target: modified IL-18 polypeptide SEQ ID NO: 229 (V11I, C38A, C76A, S105K, C127A) (human) (UniProt Q14116); test: cell-based or functional assay
modified IL-18 polypeptide SEQ ID NO: 229 (V11I, C38A, C76A, S105K, C127A) (human), sequence (Q14116 37-193 V47I/C74A/C112A/S141K/C163A): as the sequence (Q14116 other isoform, or with tags, fused parts or gaps C38A K53A C76A C127A C38A K53A C76A C127A) above, with K6E, V11I, A53K, S105K counted along it

[15] = molecular target: modified IL-18 polypeptide SEQ ID NO: 224 (V11I, C38A, C76A, Q103K, C127A) (human) (UniProt Q14116); test: cell-based or functional assay
modified IL-18 polypeptide SEQ ID NO: 224 (V11I, C38A, C76A, Q103K, C127A) (human), sequence (Q14116 37-193 V47I/C74A/C112A/Q139K/C163A): as the sequence (Q14116 other isoform, or with tags, fused parts or gaps C38A K53A C76A C127A C38A K53A C76A C127A) above, with K6E, V11I, A53K, Q103K counted along it

[16] = molecular target: modified IL-18 polypeptide SEQ ID NO: 221 (V11I, C38A, K53A, C76A, D110A, C127A) (human) (UniProt Q14116); test: cell-based or functional assay
[17] = molecular target: modified IL-18 polypeptide SEQ ID NO: 59 (E6K, C38A, K53A) (human) (UniProt Q14116); test: cell-based or functional assay
modified IL-18 polypeptide SEQ ID NO: 59 (E6K, C38A, K53A) (human), sequence (Q14116 other isoform, or with tags, fused parts or gaps C38A K53A C38A K53A): as the sequence (Q14116 other isoform, or with tags, fused parts or gaps C38A K53A C76A C127A C38A K53A C76A C127A) above, with A76C, A127C counted along it

[18] = molecular target: modified IL-18 polypeptide SEQ ID NO: 204 (V11I, C38A, K53A, C76A, C127A) (human) (UniProt Q14116); test: cell-based or functional assay
modified IL-18 polypeptide SEQ ID NO: 204 (V11I, C38A, K53A, C76A, C127A) (human), sequence (Q14116 37-193 V47I/C74A/K89A/C112A/C163A): as the sequence (Q14116 other isoform, or with tags, fused parts or gaps C38A K53A C76A C127A C38A K53A C76A C127A) above, with K6E, V11I counted along it

[19] = molecular target: modified IL-18 polypeptide SEQ ID NO: 214 (V11I, D37A, C38A, K53A, C76A, C127A) (human) (UniProt Q14116); test: cell-based or functional assay
[20] = molecular target: PEGylated modified IL-18 polypeptide SEQ ID NO: 6 + PEG (E6K, V11I, C38A, K53A, T63A, C68A, C76A, C127A, D98C-30kPEG) (human) (UniProt Q14116); test: cell-based or functional assay
[21] = molecular target: modified IL-18 polypeptide SEQ ID NO: 217 (V11I, C38A, N41A, K53A, C76A, C127A) (human) (UniProt Q14116); test: cell-based or functional assay
modified IL-18 polypeptide SEQ ID NO: 217 (V11I, C38A, N41A, K53A, C76A, C127A) (human), sequence (Q14116 37-193 V47I/C74A/N77A/K89A/C112A/C163A): as the sequence (Q14116 other isoform, or with tags, fused parts or gaps C38A K53A C76A C127A C38A K53A C76A C127A) above, with K6E, V11I, N41A counted along it

[22] = molecular target: modified IL-18 polypeptide SEQ ID NO: 222 (K8R, V11I, C38A, C76A, Q103E, C127A) (human) (UniProt Q14116); test: cell-based or functional assay
modified IL-18 polypeptide SEQ ID NO: 222 (K8R, V11I, C38A, C76A, Q103E, C127A) (human), sequence (Q14116 other isoform, or with tags, fused parts or gaps V11I C38A C76A Q103E C127A V11I C38A C76A Q103E C127A): as the sequence (Q14116 other isoform, or with tags, fused parts or gaps C38A K53A C76A C127A C38A K53A C76A C127A) above, with K6E, K8R, V11I, A53K, Q103E counted along it

[23] = molecular target: modified IL-18 polypeptide SEQ ID NO: 28 (E6K, C38A, K53A, T63A, C76A, C127A) (human) (UniProt Q14116); test: cell-based or functional assay
modified IL-18 polypeptide SEQ ID NO: 28 (E6K, C38A, K53A, T63A, C76A, C127A) (human), sequence (Q14116 other isoform, or with tags, fused parts or gaps C38A K53A T63A C76A C127A C38A K53A T63A C76A C127A): as the sequence (Q14116 other isoform, or with tags, fused parts or gaps C38A K53A C76A C127A C38A K53A C76A C127A) above, with T63A counted along it

[24] = molecular target: modified IL-18 polypeptide SEQ ID NO: 218 (V11I, C38A, K53A, C76A, C127A, D132A) (human) (UniProt Q14116); test: cell-based or functional assay
modified IL-18 polypeptide SEQ ID NO: 218 (V11I, C38A, K53A, C76A, C127A, D132A) (human), sequence (Q14116 37-193 V47I/C74A/K89A/C112A/C163A/D168A): as the sequence (Q14116 other isoform, or with tags, fused parts or gaps C38A K53A C76A C127A C38A K53A C76A C127A) above, with K6E, V11I, D132A counted along it

[25] = molecular target: wild type IL-18 (SEQ ID NO: 1, native sequence) (human) (UniProt Q14116); test: cell-based or functional assay
wild type IL-18 (SEQ ID NO: 1, native sequence) (human), sequence (Q14116 37-193): as the sequence (Q14116 other isoform, or with tags, fused parts or gaps C38A K53A C76A C127A C38A K53A C76A C127A) above, with K6E, A38C, A53K, A76C, A127C counted along it

[26] = molecular target: modified IL-18 polypeptide SEQ ID NO: 219 (V11I, C38A, K53A, C76A, G108A, C127A) (human) (UniProt Q14116); test: cell-based or functional assay
[27] = molecular target: modified IL-18 polypeptide SEQ ID NO: 30 (E6K, V11I, C38A, K53A, T63A, C76A, C127A) (human) (UniProt Q14116); test: cell-based or functional assay
modified IL-18 polypeptide SEQ ID NO: 30 (E6K, V11I, C38A, K53A, T63A, C76A, C127A) (human), sequence (Q14116 other isoform, or with tags, fused parts or gaps with the stated changes): as the sequence (Q14116 other isoform, or with tags, fused parts or gaps C38A K53A C76A C127A C38A K53A C76A C127A) above, with V11I, T63A counted along it

[28] = molecular target: modified IL-18 polypeptide SEQ ID NO: 60 (E6K, C38Q, K53A) (human) (UniProt Q14116); test: cell-based or functional assay
[29] = molecular target: modified IL-18 polypeptide SEQ ID NO: 4 (E6K, C38A, K53A, C68A, M86C) (human) (UniProt Q14116); test: cell-based or functional assay
modified IL-18 polypeptide SEQ ID NO: 4 (E6K, C38A, K53A, C68A, M86C) (human), sequence (Q14116 other isoform, or with tags, fused parts or gaps C38A K53A C68A M86C C38A K53A C68A M86C): as the sequence (Q14116 other isoform, or with tags, fused parts or gaps C38A K53A C76A C127A C38A K53A C76A C127A) above, with C68A, A76C, M86C, A127C counted along it

[30] = molecular target: modified IL-18 polypeptide SEQ ID NO: 6 (E6K, V11I, C38A, K53A, T63A, C68A, C76A, D98C, C127A) (human) (UniProt Q14116); test: cell-based or functional assay
[31] = molecular target: PEGylated modified IL-18 polypeptide SEQ ID NO: 9 + PEG (E6K, C38A, K53A, C68A, D98C-30kPEG) (human) (UniProt Q14116); test: cell-based or functional assay
PEGylated modified IL-18 polypeptide SEQ ID NO: 9 + PEG (E6K, C38A, K53A, C68A, D98C-30kPEG) (human), sequence (Q14116 other isoform, or with tags, fused parts or gaps C38A K53A C68A D98C C38A K53A C68A D98C): as the sequence (Q14116 other isoform, or with tags, fused parts or gaps C38A K53A C76A C127A C38A K53A C76A C127A) above, with C68A, A76C, D98C, A127C counted along it

[32] = molecular target: PEGylated modified IL-18 polypeptide SEQ ID NO: 4 + PEG (E6K, C38A, K53A, C68A, M86C-30kPEG) (human) (UniProt Q14116); test: cell-based or functional assay
PEGylated modified IL-18 polypeptide SEQ ID NO: 4 + PEG (E6K, C38A, K53A, C68A, M86C-30kPEG) (human), sequence (Q14116 other isoform, or with tags, fused parts or gaps C38A K53A C68A M86C C38A K53A C68A M86C): as the sequence (Q14116 other isoform, or with tags, fused parts or gaps C38A K53A C76A C127A C38A K53A C76A C127A) above, with C68A, A76C, M86C, A127C counted along it

[33] = molecular target: modified IL-18 polypeptide SEQ ID NO: 225 (V11I, C38A, S55H, C76A, C127A) (human) (UniProt Q14116); test: cell-based or functional assay
[34] = molecular target: modified IL-18 polypeptide SEQ ID NO: 212 (V11I, D35A, C38A, K53A, C76A, C127A) (human) (UniProt Q14116); test: cell-based or functional assay
[35] = molecular target: modified IL-18 polypeptide SEQ ID NO: 205 (V11I, C38A, K53A, T63A, C76A, C127A) (human) (UniProt Q14116); test: cell-based or functional assay
modified IL-18 polypeptide SEQ ID NO: 205 (V11I, C38A, K53A, T63A, C76A, C127A) (human), sequence (Q14116 37-193 V47I/C74A/K89A/T99A/C112A/C163A): as the sequence (Q14116 other isoform, or with tags, fused parts or gaps C38A K53A C76A C127A C38A K53A C76A C127A) above, with K6E, V11I, T63A counted along it

[36] = molecular target: modified IL-18 polypeptide SEQ ID NO: 213 (V11I, S36A, C38A, K53A, C76A, C127A) (human) (UniProt Q14116); test: cell-based or functional assay
modified IL-18 polypeptide SEQ ID NO: 213 (V11I, S36A, C38A, K53A, C76A, C127A) (human), sequence (Q14116 37-193 V47I/S72A/C74A/K89A/C112A/C163A): as the sequence (Q14116 other isoform, or with tags, fused parts or gaps C38A K53A C76A C127A C38A K53A C76A C127A) above, with K6E, V11I, S36A counted along it

[37] = molecular target: modified IL-18 polypeptide SEQ ID NO: 61 (E6K, C38A, K53A, C76A) (human) (UniProt Q14116); test: cell-based or functional assay
modified IL-18 polypeptide SEQ ID NO: 61 (E6K, C38A, K53A, C76A) (human), sequence (Q14116 other isoform, or with tags, fused parts or gaps C38A K53A C76A C38A K53A C76A): as the sequence (Q14116 other isoform, or with tags, fused parts or gaps C38A K53A C76A C127A C38A K53A C76A C127A) above, with A127C counted along it

[38] = molecular target: modified IL-18 polypeptide SEQ ID NO: 216 (V11I, C38A, D40A, K53A, C76A, C127A) (human) (UniProt Q14116); test: cell-based or functional assay
modified IL-18 polypeptide SEQ ID NO: 216 (V11I, C38A, D40A, K53A, C76A, C127A) (human), sequence (Q14116 37-193 V47I/C74A/D76A/K89A/C112A/C163A): as the sequence (Q14116 other isoform, or with tags, fused parts or gaps C38A K53A C76A C127A C38A K53A C76A C127A) above, with K6E, V11I, D40A counted along it

[39] = molecular target: modified IL-18 polypeptide SEQ ID NO: 62 (E6K, C38A, K53A, C127A) (human) (UniProt Q14116); test: cell-based or functional assay
[40] = molecular target: modified IL-18 polypeptide SEQ ID NO: 226 (V11I, C38A, S55R, C76A, C127A) (human) (UniProt Q14116); test: cell-based or functional assay
modified IL-18 polypeptide SEQ ID NO: 226 (V11I, C38A, S55R, C76A, C127A) (human), sequence (Q14116 37-193 V47I/C74A/S91R/C112A/C163A): as the sequence (Q14116 other isoform, or with tags, fused parts or gaps C38A K53A C76A C127A C38A K53A C76A C127A) above, with K6E, V11I, A53K, S55R counted along it

[41] = molecular target: modified IL-18 polypeptide SEQ ID NO: 5 (E6K, V11I, C38A, K53A, T63A, C68A, C76A, M86C, C127A) (human) (UniProt Q14116); test: cell-based or functional assay
[42] = molecular target: modified IL-18 polypeptide SEQ ID NO: 228 (V11I, C38A, C76A, S105I, C127A) (human) (UniProt Q14116); test: cell-based or functional assay
[43] = molecular target: modified IL-18 polypeptide SEQ ID NO: 215 (V11I, E31A, D37A, C38A, K53A, C76A, C127A) (human) (UniProt Q14116); test: cell-based or functional assay
[44] = molecular target: modified IL-18 polypeptide SEQ ID NO: 9 (E6K, C38A, K53A, C68A, D98C) (human) (UniProt Q14116); test: cell-based or functional assay
modified IL-18 polypeptide SEQ ID NO: 9 (E6K, C38A, K53A, C68A, D98C) (human), sequence (Q14116 other isoform, or with tags, fused parts or gaps C38A K53A C68A D98C C38A K53A C68A D98C): as the sequence (Q14116 other isoform, or with tags, fused parts or gaps C38A K53A C76A C127A C38A K53A C76A C127A) above, with C68A, A76C, D98C, A127C counted along it

[45] = molecular target: modified IL-18 polypeptide SEQ ID NO: 206 (V11I, C38A, K53A, S55A, C76A, C127A) (human) (UniProt Q14116); test: cell-based or functional assay
[46] = molecular target: Fc fused human IL-18BP isoform a (IL-18BPa) (human) (UniProt O95998); test: SPR, Fc-IL-18BPa captured via anti-human IgG, IL-18 as analyte, 1:1 model
Fc fused human IL-18BP isoform a (IL-18BPa) (human), sequence (O95998 31-194): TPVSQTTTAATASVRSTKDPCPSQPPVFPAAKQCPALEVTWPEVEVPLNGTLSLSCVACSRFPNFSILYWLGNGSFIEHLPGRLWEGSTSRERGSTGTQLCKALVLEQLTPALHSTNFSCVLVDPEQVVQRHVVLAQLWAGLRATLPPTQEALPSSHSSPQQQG

[47] = molecular target: His-tagged human IL-18BP (human) (UniProt O95998); test: alphaLISA of free IL-18BP after 1 h with titrated IL-18

wild type IL-18 (SEQ ID NO: 1, native sequence), sequence (Q14116 37-193): as the sequence (Q14116 other isoform, or with tags, fused parts or gaps C38A K53A C76A C127A C38A K53A C76A C127A) above, with K6E, A38C, A53K, A76C, A127C counted along it

IC50, IFNγ secretion by NK-92 cells [1]: 733 nM
IC50, IFNγ secretion by NK-92 cells [2]: 12 nM
IC50, IFNγ secretion by NK-92 cells [3]: 0.44 nM
IC50, IFNγ secretion by NK-92 cells [4]: 286 nM
IC50, IFNγ secretion by NK-92 cells [5]: 532 nM
IC50, IFNγ secretion by NK-92 cells [6]: 47.6 nM
IC50, IFNγ secretion by NK-92 cells [7]: 21.3 nM
IC50, IFNγ secretion by NK-92 cells [8]: 146 nM
IC50, IFNγ secretion by NK-92 cells [9]: 7.29 nM
IC50, IFNγ secretion by NK-92 cells [10]: 1.81 nM
IC50, IFNγ secretion by NK-92 cells [11]: 1.17 nM
IC50, IFNγ secretion by NK-92 cells [12]: 5.05 nM
IC50, IFNγ secretion by NK-92 cells [13]: 522 nM
IC50, IFNγ secretion by NK-92 cells [14]: 0.176 nM
IC50, IFNγ secretion by NK-92 cells [15]: 0.823 nM
IC50, IFNγ secretion by NK-92 cells [16]: 3.18 nM
IC50, IFNγ secretion by NK-92 cells [17]: 654 nM
IC50, IFNγ secretion by NK-92 cells [18]: 1.62 nM
IC50, IFNγ secretion by NK-92 cells [19]: 2.22 nM
IC50, IFNγ secretion by NK-92 cells [20]: 14.3 nM
IC50, IFNγ secretion by NK-92 cells [21]: 0.681 nM
IC50, IFNγ secretion by NK-92 cells [22]: 1.07 nM
IC50, IFNγ secretion by NK-92 cells [23]: 233 nM
IC50, IFNγ secretion by NK-92 cells [24]: 6.08 nM
IC50, IFNγ secretion by NK-92 cells [25]: 0.787 nM
IC50, IFNγ secretion by NK-92 cells [26]: 3.98 nM
IC50, IFNγ secretion by NK-92 cells [27]: 488 nM
IC50, IFNγ secretion by NK-92 cells [28]: 780 nM
IC50, IFNγ secretion by NK-92 cells [29]: 396 nM
IC50, IFNγ secretion by NK-92 cells [30]: 5.85 nM
IC50, IFNγ secretion by NK-92 cells [31]: 27.2 nM
IC50, IFNγ secretion by NK-92 cells [32]: 34 nM
IC50, IFNγ secretion by NK-92 cells [33]: 0.456 nM
IC50, IFNγ secretion by NK-92 cells [34]: 3.62 nM
IC50, IFNγ secretion by NK-92 cells [35]: 7.52 nM
IC50, IFNγ secretion by NK-92 cells [36]: 7.85 nM
IC50, IFNγ secretion by NK-92 cells [37]: 779 nM
IC50, IFNγ secretion by NK-92 cells [38]: 3.23 nM
IC50, IFNγ secretion by NK-92 cells [39]: 284 nM
IC50, IFNγ secretion by NK-92 cells [40]: 0.885 nM
IC50, IFNγ secretion by NK-92 cells [41]: 62.4 nM
IC50, IFNγ secretion by NK-92 cells [42]: 0.809 nM
IC50, IFNγ secretion by NK-92 cells [43]: 3.71 nM
IC50, IFNγ secretion by NK-92 cells [44]: 961 nM
IC50, IFNγ secretion by NK-92 cells [45]: 10.2 nM
Substance: Fc fused human IL-18BP isoform a (IL-18BPa) (from UniProt O95998 31-194) (Fc fusion)

pKd [46]: 8.57
koff [46]: 0.0031 s⁻¹
kon [46]: 1.14e+06 M⁻¹ s⁻¹
Substance: modified IL-18 polypeptide SEQ ID NO: 57 (E6K, C38S, K53A) (from UniProt Q14116 37-193) (ligand)

pKd [47]: 7.44
Substance: modified IL-18 polypeptide SEQ ID NO: 59 (E6K, C38A, K53A) (from UniProt Q14116 37-193) (ligand)

pKd [47]: 9.38
pKd [46]: 9.57
koff [46]: 0.000383 s⁻¹
kon [46]: 1.49e+06 M⁻¹ s⁻¹
Substance: wild type IL-18 (SEQ ID NO: 1, native sequence) (from UniProt Q14116 37-193) (ligand)
